T1: FcγRIIb extracellular domain with C-terminal His tag (human, UniProt P31994 43-217)
T1 construct: extracellular domain; soluble analyte in Biacore; also called FcgRIIb; not shown: His tag at the C terminus
T1 sequence (looked up): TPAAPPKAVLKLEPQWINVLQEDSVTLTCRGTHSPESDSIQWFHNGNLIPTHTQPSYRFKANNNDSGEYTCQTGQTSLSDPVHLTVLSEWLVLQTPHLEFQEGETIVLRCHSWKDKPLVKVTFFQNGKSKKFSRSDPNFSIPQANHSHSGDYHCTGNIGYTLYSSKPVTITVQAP

T2: FcγRIIa H (human, UniProt P12318 34-217)
T2 construct: extracellular domain; also called FcgRIIa H; 2aH; not shown: His tag attached to the C terminus
T2 sequence (looked up): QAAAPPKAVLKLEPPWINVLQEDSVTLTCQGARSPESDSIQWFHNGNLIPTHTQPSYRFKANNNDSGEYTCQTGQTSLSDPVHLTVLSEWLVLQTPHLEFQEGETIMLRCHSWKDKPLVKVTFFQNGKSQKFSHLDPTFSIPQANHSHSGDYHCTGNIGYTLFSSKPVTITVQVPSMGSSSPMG

T3: FcγRIIb (human, UniProt P31994 43-217)
T3 construct: extracellular domain; also called FcgRIIb; 2b; not shown: His tag attached to the C terminus
T3 sequence (looked up): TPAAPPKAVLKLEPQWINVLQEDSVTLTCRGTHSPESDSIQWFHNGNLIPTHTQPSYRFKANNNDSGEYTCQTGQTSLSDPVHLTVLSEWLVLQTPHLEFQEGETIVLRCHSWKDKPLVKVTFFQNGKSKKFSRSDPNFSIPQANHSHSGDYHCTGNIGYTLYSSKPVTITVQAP


Assays:
[1] = target: T1, FcγRIIb extracellular domain with …; assay: SPR, binding relative to GpH7-A5/GpH7-B3/GpL16-k0 = 100
[2] = target: T4, FcγRIa extracellular domain with C-terminal His tag (human, UniProt P12314 16-292); assay: as above
T4 construct: extracellular domain; soluble analyte in Biacore; also called FcgRI; not shown: His tag at the C terminus
T4 sequence (P12314 16-292): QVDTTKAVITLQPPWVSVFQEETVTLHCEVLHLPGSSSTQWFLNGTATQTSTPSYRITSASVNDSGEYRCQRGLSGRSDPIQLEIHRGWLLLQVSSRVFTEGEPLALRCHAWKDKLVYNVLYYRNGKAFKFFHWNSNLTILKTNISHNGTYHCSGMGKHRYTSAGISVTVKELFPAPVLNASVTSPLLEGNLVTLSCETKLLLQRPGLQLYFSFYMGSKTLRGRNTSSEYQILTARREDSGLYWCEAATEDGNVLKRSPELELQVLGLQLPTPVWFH

[3] = target: T4, FcγRIa extracellular domain with …; assay: SPR; He/Con_1a divided by He/Con_2b (FcγRIa against FcγRIIb)
Method: (§1) The heterodimerized antibodies He Abs in which one of the H chains was introduced with an alteration were assayed for their binding activities to each activating FcγR and inhibitory FcγR according to the method described in Example 4. […] The activating FcγRs in FIGS. 26, 27, 28, and 29 are FcγRIa, FcγRIIa (R), FcγRIIa (H), and FcγRIIIa, respectively.
(§2) Analysis of interaction between objective antibody and the FcγR was carried out using Biacore T100 (GE Healthcare). HBS-EP+ (GE Healthcare) was used as the running buffer, and the measurement temperature was set to 25° C. Chips produced by immobilizing the antigen peptide by the amine coupling method to a Series S Sencor Chip CM5 (GE Healthcare), or alternatively, chips produced by allowing preliminarily biotinylated antigen peptides to interact with and immobilize onto a Series S Sensor Chip SA (certified) (GE Healthcare) were used. Antibodies of interest were captured onto an antigen peptide-immobilized chip, and allowed to interact to each FcγR diluted with running buffer. To regenerate and repeatedly use the chip, the antibodies captured on the chip were washed off by reacting 10 mM glycine-HCl, pH 1.5.

FcγRIIa H [4] = target: T2, FcγRIIa H; assay: SPR; He/Con for FcγRIIa H divided by He/Con for FcγRIIb
FcγRIIb = target: T3, FcγRIIb; assay: SPR (Biacore), antibody captured on antigen peptide chip, FcγR as analyte; relative binding activity
Method: as §1, §2

FcγRIIa H [5] = target: T2, FcγRIIa H; assay: as above
Method: as §1, §2

| Binder | He/Con_2b [1] | He/Con_1a [2] | He_1a/2b (Ia/IIb) [3] [ratio] | He_2aH/2b (IIaH/IIb) (FcγRIIa H [4]) [ratio] | He/Con_2b (FcγRIIb) | He/Con_2aH (FcγRIIa H [5]) |
| --- | --- | --- | --- | --- | --- | --- |
| GpH7-A5/GpH7-B3 variant E269_20W/GpL16-k0 (antibody, human IgG1, kappa, change in the GpH7-B3 H chain only; also called He Ab) heavy 1: not shown heavy 2: not shown light: DIVMTQSPLSLPVTPGEPASISCQASESLVHSNRNTYLHWYLQKPGQSPQLLIYKVSNRFSGVPDRFSGSGSGTDFTLKISRVEAEDVGVYYCSQNTHVPPTFGQGTKVEIERTVAAPSVFIFPPSDEQLKSGTASVVCLLNNFYPREAKVQWKVDNALQSGNSQESVTEQDSKDSTYSLSSTLTLSKADYEKHKVYACEVTHQGLSSPVTKSFNRGEC | 42.5 % of control | 105 % of control | 2.47 |  |  |  |
| GpH7-A5/GpH7-B3 variant D265_02A/GpL16-k0 (antibody, human IgG1, kappa, Heterodimerized anti-glypican-3 IgG1; mutation in one H chain only; also called He Ab) heavy 1: not shown heavy 2: not shown light: DIVMTQSPLSLPVTPGEPASISCQASESLVHSNRNTYLHWYLQKPGQSPQLLIYKVSNRFSGVPDRFSGSGSGTDFTLKISRVEAEDVGVYYCSQNTHVPPTFGQGTKVEIERTVAAPSVFIFPPSDEQLKSGTASVVCLLNNFYPREAKVQWKVDNALQSGNSQESVTEQDSKDSTYSLSSTLTLSKADYEKHKVYACEVTHQGLSSPVTKSFNRGEC |  |  |  | 1.58 | 19.9 % of GpH7-A5/GpH7-B3/GpL16-k0 (=100) | 31.3 % of GpH7-A5/GpH7-B3/GpL16-k0 (=100) |
| GpH7-A5/GpH7-B3 variant D265_07I/GpL16-k0 (antibody, human IgG1, kappa, Heterodimerized anti-glypican-3 IgG1; mutation in one H chain only; also called He Ab) heavy 1: not shown heavy 2: not shown light: DIVMTQSPLSLPVTPGEPASISCQASESLVHSNRNTYLHWYLQKPGQSPQLLIYKVSNRFSGVPDRFSGSGSGTDFTLKISRVEAEDVGVYYCSQNTHVPPTFGQGTKVEIERTVAAPSVFIFPPSDEQLKSGTASVVCLLNNFYPREAKVQWKVDNALQSGNSQESVTEQDSKDSTYSLSSTLTLSKADYEKHKVYACEVTHQGLSSPVTKSFNRGEC |  |  |  | 2.35 | 1.3 % of GpH7-A5/GpH7-B3/GpL16-k0 (=100) | 3.1 % of GpH7-A5/GpH7-B3/GpL16-k0 (=100) |
| GpH7-A5/GpH7-B3 variant D265_04F/GpL16-k0 (antibody, human IgG1, kappa, Heterodimerized anti-glypican-3 IgG1; mutation in one H chain only; also called He Ab) heavy 1: not shown heavy 2: not shown light: DIVMTQSPLSLPVTPGEPASISCQASESLVHSNRNTYLHWYLQKPGQSPQLLIYKVSNRFSGVPDRFSGSGSGTDFTLKISRVEAEDVGVYYCSQNTHVPPTFGQGTKVEIERTVAAPSVFIFPPSDEQLKSGTASVVCLLNNFYPREAKVQWKVDNALQSGNSQESVTEQDSKDSTYSLSSTLTLSKADYEKHKVYACEVTHQGLSSPVTKSFNRGEC |  |  |  | 1.28 | 3.2 % of GpH7-A5/GpH7-B3/GpL16-k0 (=100) | 4.1 % of GpH7-A5/GpH7-B3/GpL16-k0 (=100) |
| GpH7-A5/GpH7-B3 variant D265_06M/GpL16-k0 (antibody, human IgG1, kappa, Heterodimerized anti-glypican-3 IgG1; mutation in one H chain only; also called He Ab) heavy 1: not shown heavy 2: not shown light: DIVMTQSPLSLPVTPGEPASISCQASESLVHSNRNTYLHWYLQKPGQSPQLLIYKVSNRFSGVPDRFSGSGSGTDFTLKISRVEAEDVGVYYCSQNTHVPPTFGQGTKVEIERTVAAPSVFIFPPSDEQLKSGTASVVCLLNNFYPREAKVQWKVDNALQSGNSQESVTEQDSKDSTYSLSSTLTLSKADYEKHKVYACEVTHQGLSSPVTKSFNRGEC |  |  |  | 1.35 | 10 % of GpH7-A5/GpH7-B3/GpL16-k0 (=100) | 13.5 % of GpH7-A5/GpH7-B3/GpL16-k0 (=100) |
| GpH7-A5/GpH7-B3 variant P271_15Y/GpL16-k0 (antibody, human IgG1, kappa, change in the GpH7-B3 H chain only; also called He Ab) heavy 1: not shown heavy 2: not shown light: DIVMTQSPLSLPVTPGEPASISCQASESLVHSNRNTYLHWYLQKPGQSPQLLIYKVSNRFSGVPDRFSGSGSGTDFTLKISRVEAEDVGVYYCSQNTHVPPTFGQGTKVEIERTVAAPSVFIFPPSDEQLKSGTASVVCLLNNFYPREAKVQWKVDNALQSGNSQESVTEQDSKDSTYSLSSTLTLSKADYEKHKVYACEVTHQGLSSPVTKSFNRGEC | 52.3 % of control | 103 % of control | 1.97 |  |  |  |
| GpH7-A5/GpH7-B3 variant P271_07I/GpL16-k0 (antibody, human IgG1, kappa, change in the GpH7-B3 H chain only; also called He Ab) heavy 1: not shown heavy 2: not shown light: DIVMTQSPLSLPVTPGEPASISCQASESLVHSNRNTYLHWYLQKPGQSPQLLIYKVSNRFSGVPDRFSGSGSGTDFTLKISRVEAEDVGVYYCSQNTHVPPTFGQGTKVEIERTVAAPSVFIFPPSDEQLKSGTASVVCLLNNFYPREAKVQWKVDNALQSGNSQESVTEQDSKDSTYSLSSTLTLSKADYEKHKVYACEVTHQGLSSPVTKSFNRGEC | 76.8 % of control | 102 % of control | 1.33 |  |  |  |
| GpH7-A5/GpH7-B3 variant D265_03V/GpL16-k0 (antibody, human IgG1, kappa, Heterodimerized anti-glypican-3 IgG1; mutation in one H chain only; also called He Ab) heavy 1: not shown heavy 2: not shown light: DIVMTQSPLSLPVTPGEPASISCQASESLVHSNRNTYLHWYLQKPGQSPQLLIYKVSNRFSGVPDRFSGSGSGTDFTLKISRVEAEDVGVYYCSQNTHVPPTFGQGTKVEIERTVAAPSVFIFPPSDEQLKSGTASVVCLLNNFYPREAKVQWKVDNALQSGNSQESVTEQDSKDSTYSLSSTLTLSKADYEKHKVYACEVTHQGLSSPVTKSFNRGEC |  |  |  | 1.42 | 3.2 % of GpH7-A5/GpH7-B3/GpL16-k0 (=100) | 4.6 % of GpH7-A5/GpH7-B3/GpL16-k0 (=100) |
| GpH7-A5/GpH7-B3 variant P271_04F/GpL16-k0 (antibody, human IgG1, kappa, change in the GpH7-B3 H chain only; also called He Ab) heavy 1: not shown heavy 2: not shown light: DIVMTQSPLSLPVTPGEPASISCQASESLVHSNRNTYLHWYLQKPGQSPQLLIYKVSNRFSGVPDRFSGSGSGTDFTLKISRVEAEDVGVYYCSQNTHVPPTFGQGTKVEIERTVAAPSVFIFPPSDEQLKSGTASVVCLLNNFYPREAKVQWKVDNALQSGNSQESVTEQDSKDSTYSLSSTLTLSKADYEKHKVYACEVTHQGLSSPVTKSFNRGEC | 59.5 % of control | 102 % of control | 1.71 |  |  |  |
| GpH7-A5/GpH7-B3 variant P271_20W/GpL16-k0 (antibody, human IgG1, kappa, change in the GpH7-B3 H chain only; also called He Ab) heavy 1: not shown heavy 2: not shown light: DIVMTQSPLSLPVTPGEPASISCQASESLVHSNRNTYLHWYLQKPGQSPQLLIYKVSNRFSGVPDRFSGSGSGTDFTLKISRVEAEDVGVYYCSQNTHVPPTFGQGTKVEIERTVAAPSVFIFPPSDEQLKSGTASVVCLLNNFYPREAKVQWKVDNALQSGNSQESVTEQDSKDSTYSLSSTLTLSKADYEKHKVYACEVTHQGLSSPVTKSFNRGEC | 58.1 % of control | 103 % of control | 1.77 |  |  |  |
| GpH7-A5/GpH7-B3 variant P271_03V/GpL16-k0 (antibody, human IgG1, kappa, change in the GpH7-B3 H chain only; also called He Ab) heavy 1: not shown heavy 2: not shown light: DIVMTQSPLSLPVTPGEPASISCQASESLVHSNRNTYLHWYLQKPGQSPQLLIYKVSNRFSGVPDRFSGSGSGTDFTLKISRVEAEDVGVYYCSQNTHVPPTFGQGTKVEIERTVAAPSVFIFPPSDEQLKSGTASVVCLLNNFYPREAKVQWKVDNALQSGNSQESVTEQDSKDSTYSLSSTLTLSKADYEKHKVYACEVTHQGLSSPVTKSFNRGEC | 74.8 % of control | 102 % of control | 1.37 |  |  |  |
| GpH7-A5/GpH7-B3 variant P271_16H/GpL16-k0 (antibody, human IgG1, kappa, change in the GpH7-B3 H chain only; also called He Ab) heavy 1: not shown heavy 2: not shown light: DIVMTQSPLSLPVTPGEPASISCQASESLVHSNRNTYLHWYLQKPGQSPQLLIYKVSNRFSGVPDRFSGSGSGTDFTLKISRVEAEDVGVYYCSQNTHVPPTFGQGTKVEIERTVAAPSVFIFPPSDEQLKSGTASVVCLLNNFYPREAKVQWKVDNALQSGNSQESVTEQDSKDSTYSLSSTLTLSKADYEKHKVYACEVTHQGLSSPVTKSFNRGEC | 67.9 % of control | 102 % of control | 1.5 |  |  |  |
| GpH7-A5/GpH7-B3 variant P271_06M/GpL16-k0 (antibody, human IgG1, kappa, change in the GpH7-B3 H chain only; also called He Ab) heavy 1: not shown heavy 2: not shown light: DIVMTQSPLSLPVTPGEPASISCQASESLVHSNRNTYLHWYLQKPGQSPQLLIYKVSNRFSGVPDRFSGSGSGTDFTLKISRVEAEDVGVYYCSQNTHVPPTFGQGTKVEIERTVAAPSVFIFPPSDEQLKSGTASVVCLLNNFYPREAKVQWKVDNALQSGNSQESVTEQDSKDSTYSLSSTLTLSKADYEKHKVYACEVTHQGLSSPVTKSFNRGEC | 77.5 % of control | 102 % of control | 1.32 |  |  |  |

Reference: patent US20150344570A1 (published 2015)
